Assay results reported in patent publication US20260242735A1 (UNIVERSIT T BASEL, published 2026).

Tests used:
[1] = target: human CD33 variant P48I (human, UniProt P20138 18-364); assay: flow cytometry, IgG on cells expressing the mutant
Procedure: (§1) An alanine scan on human CD33 was performed to the determine the residues on CD33 that are involved in binding to the antibodies investigated. […] Briefly, a mutation library of CD33 was created by high-throughput, site-directed mutagenesis. Each residue was individually mutated to alanine, with alanine codons mutated to serine. The mutant library was arrayed in 384-well microplates and transiently transfected into HEK293-T. Following transfection, cells were incubated with the indicated antibodies (IgG or Fab) at concentrations pre-determined using an independent immunofluorescence titration curve on wild type CD33. […] Binding of each antibody to each mutant clone was determined in duplicates. For each point, background fluorescence was subtracted from the raw data, which were then normalized to antibody reactivity with wild type CD33.
(§2) Antibodies were screened for binding to the human CD33 variants in IgG format. […] For each mutation, background fluorescence was subtracted from the raw data, which were then normalized to antibody reactivity with wild-type CD33.

[2] = target: human CD33 variant Y49I (human, UniProt P20138 18-364); assay: flow cytometry, IgG on cells expressing the mutant
Procedure: as §1, §2

[3] = target: human CD33 variant D51N (human, UniProt P20138 18-364); assay: flow cytometry, IgG on cells expressing the mutant
Procedure: as §1, §2

[4] = target: human CD33 T42K (human, UniProt P20138 18-364); assay: flow cytometry, mutant on cells, IgG
[5] = target: human CD33 Q24S (human, UniProt P20138 18-364); assay: flow cytometry, mutant on cells, IgG
[6] = target: human CD33 L23M (human, UniProt P20138 18-364); assay: flow cytometry, mutant on cells, IgG
[7] = target: human CD33 T42P (human, UniProt P20138 18-364); assay: flow cytometry, mutant on cells, IgG
[8] = target: human CD33 N20V (human, UniProt P20138 18-364); assay: flow cytometry, mutant on cells, IgG
[9] = target: human CD33 F21S (human, UniProt P20138 18-364); assay: flow cytometry, mutant on cells, IgG
[10] = target: human CD33 P46L (human, UniProt P20138 18-364); assay: flow cytometry, mutant on cells, IgG
[11] = target: human CD33 N20S (human, UniProt P20138 18-364); assay: flow cytometry, mutant on cells, IgG
[12] = target: human CD33 W22T (human, UniProt P20138 18-364); assay: flow cytometry, mutant on cells, IgG
[13] = target: human CD33 N20P (human, UniProt P20138 18-364); assay: flow cytometry, mutant on cells, IgG
[14] = target: human CD33 P46R (human, UniProt P20138 18-364); assay: flow cytometry, mutant on cells, IgG
[15] = target: human CD33 F44S (human, UniProt P20138 18-364); assay: flow cytometry, mutant on cells, IgG
[16] = target: human CD33 F43V (human, UniProt P20138 18-364); assay: flow cytometry, mutant on cells, IgG
[17] = target: human CD33 F44P (human, UniProt P20138 18-364); assay: flow cytometry, mutant on cells, IgG
[18] = target: human CD33 D18N (human, UniProt P20138 19-364); assay: flow cytometry, mutant on cells, IgG
[19] = target: human CD33 N20G (human, UniProt P20138 18-364); assay: flow cytometry, mutant on cells, IgG
[20] = target: human CD33 P46I (human, UniProt P20138 18-364); assay: flow cytometry, mutant on cells, IgG
[21] = target: human CD33 F44D (human, UniProt P20138 18-364); assay: flow cytometry, mutant on cells, IgG
[22] = target: human CD33 F44Q (human, UniProt P20138 18-364); assay: flow cytometry, mutant on cells, IgG
[23] = target: human CD33 F44T (human, UniProt P20138 18-364); assay: flow cytometry, mutant on cells, IgG
[24] = target: human CD33 Q24N (human, UniProt P20138 18-364); assay: flow cytometry, mutant on cells, IgG
[25] = target: human CD33 P46F (human, UniProt P20138 18-364); assay: flow cytometry, mutant on cells, IgG
[26] = target: human CD33 F21I (human, UniProt P20138 18-364); assay: flow cytometry, mutant on cells, IgG
[27] = target: human CD33 Q24L (human, UniProt P20138 18-364); assay: flow cytometry, mutant on cells, IgG
[28] = target: human CD33 P19D (human, UniProt P20138 18-364); assay: flow cytometry, mutant on cells, IgG
[29] = target: human CD33 Q24T (human, UniProt P20138 18-364); assay: flow cytometry, mutant on cells, IgG
[30] = target: human CD33 W22R (human, UniProt P20138 18-364); assay: flow cytometry, mutant on cells, IgG
[31] = target: human CD33 V25S (human, UniProt P20138 18-364); assay: flow cytometry, mutant on cells, IgG
[32] = target: human CD33 N20T (human, UniProt P20138 18-364); assay: flow cytometry, mutant on cells, IgG
[33] = target: human CD33 N20W (human, UniProt P20138 18-364); assay: flow cytometry, mutant on cells, IgG
[34] = target: human CD33 N20E (human, UniProt P20138 18-364); assay: flow cytometry, mutant on cells, IgG
[35] = target: human CD33 P19L (human, UniProt P20138 18-364); assay: flow cytometry, mutant on cells, IgG
[36] = target: human CD33 N20L (human, UniProt P20138 18-364); assay: flow cytometry, mutant on cells, IgG
[37] = target: human CD33 P19W (human, UniProt P20138 18-364); assay: flow cytometry, mutant on cells, IgG

Chain of human CD33 variant P48I (P20138 18-364 P48I limits assumed): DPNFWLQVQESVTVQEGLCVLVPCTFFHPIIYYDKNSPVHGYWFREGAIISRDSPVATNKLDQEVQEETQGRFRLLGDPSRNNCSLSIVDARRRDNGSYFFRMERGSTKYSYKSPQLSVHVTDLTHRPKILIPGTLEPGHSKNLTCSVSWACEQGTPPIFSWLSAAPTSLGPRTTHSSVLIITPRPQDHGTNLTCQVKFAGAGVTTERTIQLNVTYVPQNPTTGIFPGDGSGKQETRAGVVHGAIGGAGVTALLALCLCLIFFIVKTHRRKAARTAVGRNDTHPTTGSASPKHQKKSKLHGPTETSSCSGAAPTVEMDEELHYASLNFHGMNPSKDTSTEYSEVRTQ
Chain of human CD33 variant D51N (P20138 18-364 D51N limits assumed): as the sequence (P20138 18-364 P48I limits assumed) above, with I31P, D34N counted along it
Chain of human CD33 variant Y49I (P20138 18-364 Y49I limits assumed): as the sequence (P20138 18-364 P48I limits assumed) above, with I31P, Y32I counted along it
Chain of human CD33 F44P (P20138 18-364 F44P limits assumed): as the sequence (P20138 18-364 P48I limits assumed) above, with F27P, I31P counted along it
Chain of human CD33 F21S (P20138 18-364 F21S limits assumed): as the sequence (P20138 18-364 P48I limits assumed) above, with F4S, I31P counted along it
Chain of human CD33 Q24N (P20138 18-364 Q24N limits assumed): as the sequence (P20138 18-364 P48I limits assumed) above, with Q7N, I31P counted along it
Chain of human CD33 Q24L (P20138 18-364 Q24L limits assumed): as the sequence (P20138 18-364 P48I limits assumed) above, with Q7L, I31P counted along it
Chain of human CD33 W22T (P20138 18-364 W22T limits assumed): as the sequence (P20138 18-364 P48I limits assumed) above, with W5T, I31P counted along it
Chain of human CD33 Q24S (P20138 18-364 Q24S limits assumed): as the sequence (P20138 18-364 P48I limits assumed) above, with Q7S, I31P counted along it
Chain of human CD33 P19D (P20138 18-364 P19D limits assumed): as the sequence (P20138 18-364 P48I limits assumed) above, with P2D, I31P counted along it
Chain of human CD33 Q24T (P20138 18-364 Q24T limits assumed): as the sequence (P20138 18-364 P48I limits assumed) above, with Q7T, I31P counted along it
Chain of human CD33 N20G (P20138 18-364 N20G limits assumed): as the sequence (P20138 18-364 P48I limits assumed) above, with N3G, I31P counted along it
Chain of human CD33 F43V (P20138 18-364 F43V limits assumed): as the sequence (P20138 18-364 P48I limits assumed) above, with F26V, I31P counted along it
Chain of human CD33 P19L (P20138 18-364 P19L limits assumed): as the sequence (P20138 18-364 P48I limits assumed) above, with P2L, I31P counted along it

B1: Refmab #2 (antibody, human IgG1, V domains shown)
VH: QVQLVQSGAEVKKPGSSVKVSCKASGGTFSDYAISWVRQAPGQGLEWMGRIIPILGVADYAQKFQGRVTITADKSTRTAYMELSSLRSEDTAVYYCARNWADAFDIWGQGTMVTVSS
VL: DIQLTQSPSSLSASVGDRVTITCRASQGISSVLAWYQQKPGKAPKLLIYDASSLESGVPSRFSGSGSGTDFTLTISSLQPEDFATYYCQQFDSSITFGQGTKLEIK
notes: Tested in IgG format; human IgG1 Fc silent (PG-LALA)
In the case of B1, the “Mean % WT Binding” value [1] is reported as 81.9 % of WT, the “Mean % WT Binding” value [2] is reported as 94.3 % of WT and the “Mean % WT Binding” value [3] is reported as 96.7 % of WT.

B2: Refmab #3 (antibody, human IgG1, V domains shown)
VH: QVQLVQSGAEVKKPGSSVKVSCKASGYTFTDYNMHWVRQAPGQGLEWIGYIYPYNGGTGYNQKFKSKATITADESTNTAYMELSSLRSEDTAVYYCARGRPAMDYWGQGTLVTVSS
VL: DIQMTQSPSSLSASVGDRVTITCRASESVDNYGISFMNWFQQKPGKAPKLLIYAASNQGSGVPSRFSGSGSGTDFTLTISSLQPDDFATYYCQQSKEVPWTFGQGTKVEIK
notes: as for B1
With B2 the “Mean % WT Binding” value [1] was 122 % of WT, the “Mean % WT Binding” value [2] was 109 % of WT and the “Mean % WT Binding” value [3] was 107 % of WT.

B3: Refmab #4 (antibody, human IgG1, V domains shown)
VH: QVQLVQSGAEVKKPGESVKVSCKASGYTFTNYGMNWVKQAPGQGLEWMGWINTYTGEPTYADKFQGRVTMTTDTSTSTAYMEIRNLGGDDTAVYYCARWSWSDGYYVYFDYWGQGTSVTVSS
VL: DIVMTQSPDSLTVSLGERTTINCKSSQSVLDSSTNKNSLAWYQQKPGQPPKLLLSWASTRESGIPDRFSGSGSGTDFTLTIDSPQPEDSATYYCQQSAHFPITFGQGTRLEIK
notes: as for B1
B3 was tested, and the “Mean % WT Binding” value [4] was 86 % WT binding, the “Mean % WT Binding” value [5] was 96.8 % WT binding and the “Mean % WT Binding” value [6] was 92.7 % WT binding. The “Mean % WT Binding” value [7] was 21.6 % WT binding, the “Mean % WT Binding” value [8] was 118 % WT binding and the “Mean % WT Binding” value [9] was 118 % WT binding. The “Mean % WT Binding” value [10] was 96.3 % WT binding, the “Mean % WT Binding” value [11] was 91.7 % WT binding and the “Mean % WT Binding” value [12] was 103 % WT binding. The “Mean % WT Binding” value [13] was 98.5 % WT binding, the “Mean % WT Binding” value [14] was 106 % WT binding and the “Mean % WT Binding” value [15] was 93.8 % WT binding. The “Mean % WT Binding” value [16] was 81.5 % WT binding, the “Mean % WT Binding” value [17] was 104 % WT binding and the “Mean % WT Binding” value [18] was 76 % WT binding. The “Mean % WT Binding” value [19] was 103 % WT binding, the “Mean % WT Binding” value [20] was 91 % WT binding and the “Mean % WT Binding” value [21] was 110 % WT binding. For the same binder, the “Mean % WT Binding” value [22] was 102 % WT binding, the “Mean % WT Binding” value [23] was 97.1 % WT binding and the “Mean % WT Binding” value [24] was 107 % WT binding. The “Mean % WT Binding” value [25] was 42.4 % WT binding, the “Mean % WT Binding” value [26] was 96.3 % WT binding and the “Mean % WT Binding” value [27] was 97 % WT binding. The “Mean % WT Binding” value [28] was 94.8 % WT binding, the “Mean % WT Binding” value [29] was 97.2 % WT binding and the “Mean % WT Binding” value [30] was 114 % WT binding. For the same binder, the “Mean % WT Binding” value [31] was 106 % WT binding, the “Mean % WT Binding” value [32] was 92.1 % WT binding and the “Mean % WT Binding” value [33] was 52.1 % WT binding. For the same binder, the “Mean % WT Binding” value [34] was 100 % WT binding, the “Mean % WT Binding” value [35] was 101 % WT binding and the “Mean % WT Binding” value [36] was 89.8 % WT binding. For the same binder, the “Mean % WT Binding” value [37] was 82.8 % WT binding.

B4: Refmab #4 (antibody, human IgG1, V domains shown)
VH: B3 VH
VL: B3 VL
notes: as for B1
With B4 the “Mean % WT Binding” value [1] was 31.9 % of WT, the “Mean % WT Binding” value [2] was 94 % of WT and the “Mean % WT Binding” value [3] was 76.4 % of WT.

B5: Refmab #1 (antibody, human IgG1, V domains shown)
VH: EVQLVQSGAEVKKPGSSVKVSCKASGYTITDSNIHWVRQAPGQSLEWIGYIYPYNGGTDYNQKFKNRATLTVDNPTNTAYMELSSLRSEDTAFYYCVNGNPWLAYWGQGTLVTVSS
VL: DIQLTQSPSTLSASVGDRVTITCRASESLDNYGIRFLTWFQQKPGKAPKLLMYAASNQGSGVPSRFSGSGSGTEFTLTISSLQPDDFATYYCQQTKEVPWSFGQGTKVEVK
notes: Tested in IgG format; human IgG1 (Absolute Antibody hP67.6, Cat. No. Ab00283-10.0); also called hP67.6
In the case of B5, the “Mean % WT Binding” value [1] is reported as 107 % of WT, the “Mean % WT Binding” value [2] is reported as 109 % of WT and the “Mean % WT Binding” value [3] is reported as 99 % of WT.
